According to publication PMC11863771 (Cell Communication and Signaling : CCS, 2025):
Each block holds one binder with its values, some of them ahead of it.

Assays:
CXCR4-Rluc8 = target: T1, CXCR4-Rluc8 (human, UniProt P61073 1-352); assay: FRET or BRET; quantitative BRET saturation in HEK293A cells: fixed amount of Rluc8-tagged donor, increasing amounts of mCit-tagged acceptor, coelenterazine h 5 µM; no ligand, no further receptor coexpressed; conditions: partners not purified
T1 construct: C-X-C chemokine receptor type 4 (CXCR4), human cDNA from the Missouri S&T cDNA Resource Center; source: HEK293A, transiently transfected, in cells; not shown: Rluc8, C-terminal, kept

[1] = target: T2, CXCR4-Rluc8 (human), P61073; assay: FRET or BRET; quantitative BRET saturation in HEK293A cells, CXCR4-Rluc8 and CXCR4-mCit, with S1P1 coexpressed, with CXCL12 (10 nM); conditions: remark: other sources report otherwise
T2 chain: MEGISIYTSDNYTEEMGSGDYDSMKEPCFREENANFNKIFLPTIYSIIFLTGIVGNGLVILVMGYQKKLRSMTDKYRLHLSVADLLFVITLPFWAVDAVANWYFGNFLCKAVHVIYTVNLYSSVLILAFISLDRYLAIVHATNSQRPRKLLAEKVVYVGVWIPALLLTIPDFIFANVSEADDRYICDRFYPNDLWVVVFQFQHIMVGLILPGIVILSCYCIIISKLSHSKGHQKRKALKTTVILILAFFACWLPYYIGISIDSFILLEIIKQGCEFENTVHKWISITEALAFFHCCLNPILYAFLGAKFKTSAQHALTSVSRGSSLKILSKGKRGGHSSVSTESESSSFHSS

[2] = target: T2, CXCR4-Rluc8 (human), P61073; assay: FRET or BRET; quantitative BRET saturation in HEK293A cells, CXCR4-Rluc8 and CXCR4-mCit, with S1P1 coexpressed, vehicle; conditions: remark: other sources report otherwise
[3] = target: T2, CXCR4-Rluc8 (human), P61073; assay: FRET or BRET; quantitative BRET saturation in HEK293A cells: fixed amount of Rluc8-tagged donor, increasing amounts of mCit-tagged acceptor, coelenterazine h 5 µM; no ligand, no further receptor coexpressed; conditions: remark: other sources report otherwise
[4] = target: T2, CXCR4-Rluc8 (human), P61073; assay: FRET or BRET; quantitative BRET saturation in HEK293A cells, CXCR4-Rluc8 and CXCR4-mCit, without S1P1, with CXCL12 (10 nM); conditions: remark: other sources report otherwise
[5] = target: T2, CXCR4-Rluc8 (human), P61073; assay: FRET or BRET; quantitative BRET saturation in HEK293A cells: fixed amount of Rluc8-tagged donor, increasing amounts of mCit-tagged acceptor, coelenterazine h 5 µM; no ligand, no further receptor coexpressed; conditions: remark: other sources report otherwise

BRET50 (CXCR4-Rluc8): 6.97 ± 0.473
B1: mCit-tagged S1P3(TM3) (receptor, human)
chain: MATALPPRLQPVRGNETLREHYQYVGKLAGRLKEASEGSTLTTVLFLVICSFIVLENLMVLIAIWKNNKFHNRMYFFIGNLALCDLLAGIAYKVNILMSGKKTFKLTPAQWFLREGSMFVALSASVFSLLAIAIERYITMLKMKLHNGNKRHRVFLLIGMCWLIAFTLGALPILGWNCLHNLPDCSTILPLYSKKYIAFCISIFTAILVTIVILYARIYFLVKSSSRKVANHNNSERSMALLRTVVIVVSVFIACWSPLFILFLIDVACRVQACPILFKAQWFIVLAVLNSAMNPVIYTLASKEMRRAFFRLVCNCLVRGRGARASPIQPALDPSRSKSSSSNNSSHSPKVKEDLPHTAPSSCIMDKNAALQNGIFCN
notes: S1P3, human, the part before the printed TM3 stretch (SLSPTV...); TM3 of S1P1, human, put in place of TM3 of S1P3; S1P3, human, the part after the printed TM3 stretch (...RPYDA); TM3 of S1P3 ([residues removed]) replaced with TM3 of S1P1; source: HEK293A, transiently transfected, in cells; not shown: mCitrine (mCit), C-terminal, kept

BRET50 (CXCR4-Rluc8): 7.19 ± 0.559
B2: mCit-tagged S1P1(TM4) (receptor, human)
chain: MGPTSVPLVKAHRSSVSDYVNYDIIVRHYNYTGKLNISADKENSIKLTSVVFILICCFIILENIFVLLTIWKTKKFHRPMYYFIGNLALSDLLAGVAYTANLLLSGATTYKLTPAQWFLREGSMFVALSASVFSLLAIAIERYITMLKMKLHNGNKRHRVFLLIGMCWLIAFTLGALPILGWNCLHNLPDCSTVLPLYHKHYILFCTTVFTLLLLSIVILYCRIYSLVRTRSRRLTFRKNISKASRSSEKSLALLKTVIIVLSVFIACWAPLFILLLLDVGCKVKTCDILFRAEYFLVLAVLNSGTNPIIYTLTNKEMRRAFIRIMSCCKCPSGDSAGKFKRPIIAGMEFSRSKSDNSSHPQKDEGDNPETIMSSGNVNSSS
notes: S1P1, human, the part before the printed TM4 stretch (SNNFRL...); TM4 of S1P3, human, put in place of TM4 of S1P1; S1P1, human, the part after the printed TM4 stretch (...ALSSCS); TM4 of S1P1 ([residues removed]) replaced with TM4 of S1P3; source: HEK293A, transiently transfected, in cells; not shown: mCitrine (mCit), C-terminal, kept

BRET50 (CXCR4-Rluc8): 12.7 ± 0.687
B4: mCit-tagged S1P3(TM4) (receptor, human)
chain: MATALPPRLQPVRGNETLREHYQYVGKLAGRLKEASEGSTLTTVLFLVICSFIVLENLMVLIAIWKNNKFHNRMYFFIGNLALCDLLAGIAYKVNILMSGKKTFSLSPTVWFLREGSMFVALGASTCSLLAIAIERHLTMIKMRPYDASNNFRLFLLISACWVISLILGGLPIMGWNCISALSSCSTILPLYSKKYIAFCISIFTAILVTIVILYARIYFLVKSSSRKVANHNNSERSMALLRTVVIVVSVFIACWSPLFILFLIDVACRVQACPILFKAQWFIVLAVLNSAMNPVIYTLASKEMRRAFFRLVCNCLVRGRGARASPIQPALDPSRSKSSSSNNSSHSPKVKEDLPHTAPSSCIMDKNAALQNGIFCN
notes: S1P3, human, the part before the printed TM4 stretch (NKRHRV...); TM4 of S1P1, human, put in place of TM4 of S1P3; S1P3, human, the part after the printed TM4 stretch (...NLPDCS); TM4 of S1P3 ([residues removed]) replaced with TM4 of S1P1; source: HEK293A, transiently transfected, in cells; not shown: mCitrine (mCit), C-terminal, kept

The next lines start with the binder.

B3: CXCR4-mCit, P61073 1-352 (receptor)
chain: MEGISIYTSDNYTEEMGSGDYDSMKEPCFREENANFNKIFLPTIYSIIFLTGIVGNGLVILVMGYQKKLRSMTDKYRLHLSVADLLFVITLPFWAVDAVANWYFGNFLCKAVHVIYTVNLYSSVLILAFISLDRYLAIVHATNSQRPRKLLAEKVVYVGVWIPALLLTIPDFIFANVSEADDRYICDRFYPNDLWVVVFQFQHIMVGLILPGIVILSCYCIIISKLSHSKGHQKRKALKTTVILILAFFACWLPYYIGISIDSFILLEIIKQGCEFENTVHKWISITEALAFFHCCLNPILYAFLGAKFKTSAQHALTSVSRGSSLKILSKGKRGGHSSVSTESESSSFHSS
BRET50 [1]: 20.1
BRET50 [2]: 22.8
BRET50 [3]: 15.6
BRET50 [4]: 9.53
BRET50 [5]: 2.74

B5: mCit-tagged S1P1(TM3) (receptor, human)
chain: MGPTSVPLVKAHRSSVSDYVNYDIIVRHYNYTGKLNISADKENSIKLTSVVFILICCFIILENIFVLLTIWKTKKFHRPMYYFIGNLALSDLLAGVAYTANLLLSGATTYSLSPTVWFLREGSMFVALGASTCSLLAIAIERHLTMIKMRPYDASNNFRLFLLISACWVISLILGGLPIMGWNCISALSSCSTVLPLYHKHYILFCTTVFTLLLLSIVILYCRIYSLVRTRSRRLTFRKNISKASRSSEKSLALLKTVIIVLSVFIACWAPLFILLLLDVGCKVKTCDILFRAEYFLVLAVLNSGTNPIIYTLTNKEMRRAFIRIMSCCKCPSGDSAGKFKRPIIAGMEFSRSKSDNSSHPQKDEGDNPETIMSSGNVNSSS
notes: S1P1, human, the part before the printed TM3 stretch (KLTPAQ...); TM3 of S1P3, human, put in place of TM3 of S1P1; S1P1, human, the part after the printed TM3 stretch (...KLHNG); TM3 of S1P1 ([residues removed]) replaced with TM3 of S1P3; source: HEK293A, transiently transfected, in cells; not shown: mCitrine (mCit), C-terminal, kept
BRET50 (CXCR4-Rluc8): 7.24 ± 0.501
